How the values were obtained:
[1] = target: IMP3 RRM12 Y5A (UniProt O00425 1-161, Y5A); experiment: ITC
[2] = target: IMP3 RRM12 (UniProt O00425 1-161); experiment: ITC
IMP3 RRM12, sequence (O00425 1-161): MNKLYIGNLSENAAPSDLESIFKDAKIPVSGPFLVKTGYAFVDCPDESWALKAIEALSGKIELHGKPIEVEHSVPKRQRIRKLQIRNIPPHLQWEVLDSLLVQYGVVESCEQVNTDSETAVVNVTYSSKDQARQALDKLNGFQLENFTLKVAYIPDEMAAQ

IMP3 RRM12 Y5A, sequence (O00425 1-161 Y5A): as the sequence (O00425 1-161) above, with Y5A counted along it

ACAC (ssRNA)
binding result [1]: no binding

UUUU (ssRNA)
binding result [2]: no binding

GGGG (ssRNA)
binding result [2]: no binding
